Data taken from a protein production outcome set (Wang et al. 2014).

Assay: label from the status in PepcDB records

Sequence	protein production
ITARRRGELRRDALLKMGDQLRSLTTIQDMTGIASEIVGRALGAVRAGFGRVDPGEESVIIENDWSAAGYASLAGWHSLSDHPSFETANATKQPVVVADVAAAPPDNLSSQAKDDPGIGSLAVIPIENHDGSTALFFVHVAEPRDWSDDDLAFLRNVGDRLAAGVGRLDAEALQHTLNLELSHRMKNTLAMVMAIARQTLRSIP	failed
MILNPQQRTKLDSRRDDLFYAAPRFVTHVDDFFLARLTDLYRQYLQPQMRVLDLMSSWVSHLPPELSFQEVVGHGMNAAELARNPRLDRYFVQNLNEELALPLEDASFNAVLMAVSVQYLQYPEATFTEIARILKPQGVVIVSFSNRMFFEKAIQAWREGSEGDRVQLVQTYINSTPSLKVIATHLPRLWPWRGFTDPFYAVVGQKQAVLEHHHHHH	not failed
MFLIILIKSLIIGGLVGVGVGAGAARMFHAPTTQGMGAFRTLGELNSCEGDPASHFSFGLGFFFNAWASSVAAGSFTQDVDHRIIPNWGAAALMLKNRNVGETLHDPKKMAISCGIIGMIVVAFLNLTASSVPEALQVTAVKVLVPAANLLVNTVMPVIFWLAAIDAGKKSGFWATIFGGAAQLIMGNAVPGLVLGILIGKGVEESGWNRVTKVMMVAIVALFVLSGFFRGFDMKMIESFHLTVPNWLDMIHNSLSGK	failed
MEHKIVHVGDIPVANDKPFTLFAGMNVLESRDLAMQICEHYVKVTDKLGIPYVFKASFDKANRSSVHSYRGPGLEEGMKIFQELKETFGVKIITDVHTEAQAQPVADVVDVIQLPAFLARQTDLVEAMAKTGAVINVKKPQFMSPGQVGNIVEKFAECGNDKVILCERGSCHGYDNLVVDMLGFGVMKQASNGSPIIFDVTHSLQMRDPSGAASGGRREQTVELAKAGLATGIAGLFIEAHPNPDKARCDGPSALPLDKLEPFLAQMKALDDLIKSFAHIDIR	not failed
MKIIVVGGGKVGKALCRSLVEEEHDVILIEENESVLNHVTKRLDIMGIVGNGANFRILEQADVQHCDIFIAITDKDEVNMVAAVLAKRMGAKETIVRVRNPEYSNTYFKDKNFLGFSLVVNPELLTARYIANMVDFPNARSVEHFVNGRVMLMEFKIVDGNNLCQMSLNQFRKRFNNIVICAIERGNELIIPDGDAVIQSGDKIFVTGKRMEMIHFHNFVKNKVIKHLMIIGAGRISYYLLNILKTTNRHLQVKVIELNPKKAELFSQEFPHIHVVQGDGTAKDILLEESAANYDAIATLTGVDEENIIASMFLETLGVQKNITKVNRTSILEIINPEQFSSIITPKSIAVDSMMHFIRGRVNAQDSNLDAMHHVANGRIETLQFEIRQTNKMAGKTLSELHFKTNVLIAAIIRNGKTIFPTGDDILEVGDKIVVITLLTNITHIYDLLKR	failed
MPERINKMKIIAFYLPQFHNIPENDEWWGDGFTEWVNVKKAKPIFDGHNQPRVPLNHNYYNLLDDDVKIWQADLAKKYGVYGFCYYHYWFDGKLLLEKPMEQMLENKKVDIPFCICWANEPWTRAWVGETKTLIPQKYGSKKEWKEHFDYLLPFFKDPRYILDEGKPLVVIYRPEIIDVLNDMLDYWNELAKNAGFEGLKFAYQSAGMDELPKNKRNDSRFDYDIEFQPAYAFTKLNKNTLPVLRKIKKVVSDFVEKRTGLTLRFIGSGKVAALNRVDYDKAWETILNTTPESIINVPGAFVDWDNTPRHGERGRVYIGKTPEKFEKYLSEQIRRAKNVYHKDMIFMYAWNEWAEGGYLEPDQTSGYAYLEAIKKALDENGENPWQH	failed
MKALHFGAGNIGRGFIGKLLADAGIQLTFADVNQVVLDALNARHSYQVHVVGETEQVDTVSGVNAVSSIGDDVVDLIAQVDLVTTAVGPVVLERIAPAIAKGLVKRKEQGNESPLNIIACENMVRGTTQLKGHVMNALPEDAKAWVEEHVGFVDSAVDRIVPPSASATNDPLEVTVETFSEWIVDKTQFKGALPNIPGMELTDNLMAFVERKLFTLNTGHAITAYLGKLAGHQTIRDAILDEKIRAVVKGAMEESGAVLIKRYGFDADKHAAYIQKILGRFENPYLKDDVERVGRQPLRKLSAGDRLIKPLLGTLEYSLPHKNLIQGIAGAMHFRSEDDPQAQELAALIADKGPQAALAQISGLDANSEVVSEAVTAYKAMQ	not failed
MYSGFTREKSDLRTEDVEITKEPFTLLIMGIEDYATDGQNGRTDSLMFATVNPKTQKISLMSIPRDSRVPIVGKNKEDKINAAHAYGGEEMAIKTVEGFLKVPVDHYVKIDFQGFKGIVDAVGGVTVDVPFDFWERSDVDYYKKIQFKQGQQELNGEEALAYVRMRKQDPNGDYGRAARQRQLLAAVAQKLNSTSTVFKIKDLTSVVGKYIKTDIPISDGLALYKKLSGFDPSTIQTLKLEGEDKKIGGIYYFLPDPNGVEAVRNEIKKELGLEHHHHHH	not failed
MDQFEYIITLEFGNQNQVESAYQIFKSIPKKLKAKSIGEESIKSNNQDWQDWRVCDLEIDMITDFKNQTSKEEESDLITSQYLGHGIIRLFKLSNANNTLNEKEILTIPGDDTMICILFVPTYFTVHDLLHFYIGDDIVNKQVSNFRILRNQQKGMGFNFTVLIKFRNALDAKNFKEEFNGKSFSRMDPETCHVISVKEIVFQKKLFQRPAANEDFPYLLTDPFTVKKKKELVKVELPTCPVCLERMDSETTGLVTIPCQHTFHCQCLNKWKNSRCPVCRHSSLRLSRESLLKQAGDSAHCATCGSTDNLWICLICGNVGCGRYNSKHAIKHYEETLHCFAMDIRTQRVWDYAGDNYVHRLVQNEVDGKLVEVGGSGDDDNNDIGNSDELQNVVYGNRSKNGEKSNSNKKDGELAANFLRHREYHLEYVQVLISQLESQREYYELKLQEKDQTASDSSNVESLKKSMEDLKLQFQVTQKEWQKREMAQKSKLEEDMLVIEGLQANLDHLSKKQEQLERENKALEESKQDLEEQVKDLMFYLDSQEKFKDADESVKEGTILIQQPHGAAQASKSKKKRNKNKKAGK	failed
MQQVGFGTWNWVAVIVYLVLMLLVGAYFTKRASQNTDSFFTASGRLPSWAVGFSIYATTLSAITFMSTPEKAFLTDWSYIAGNIAIVAIIPLLIYFYVPFFKKLKVTSAYEYLEARFRPSVRVIGSLLFVLFHLGRVAIVIYLPTLAITAVSDLNPYVVASLVGILCILYTFLGGFEGVVWSDFIQGIILLGGAAAIIILGIIHIKGGMGTVVTDALDHKKLISADNWKFNTAAAAIPIIFLGNIFNNLHQYTASQDVVQRYQASESMSETKKSLWMNGVLALISAPLFYGMGTMLYSFYTHESALPEGFNTSSIVPYLILTEMPPFIAGLLIATIFAAAQSTISSSLNSISACLSVDIKHRIFGKGKEKDEVTFARWMIILSGLFGFGMSIYLIASDSNDLWDLFLLITGLVGVPLAGVFAVGIFTKRTNTLGVICGLALGIIFAYIFNGIGGGNSPFFVSIISFLVAFIFSYLIRIVIPDKKKDIVGLTIFDIKEKSNYVSKIHVKK	failed
MESMVAPGEVLMSQAIQPAHADSRGELSAGQLLKWMDTTACLAAEKHAGISCVTASMDDILFEDTARIGQIITIRAKVTRAFSTSMEISIKVIVQDKFTGIQKLLCVAFSTFVAKPVGKEKVHLKPVLLQTEQEQVEHNLASERRKVRLQHENTFNNIMKESSRFSDSICNEEEGTATTMGTSVQSIELVLPPHANHHGNTFGGQIMAWMETVATISASRLCHGHPFLKSVDMFKFRGPSTVGDRLVFSAIVNNTFQNSVEVGVRVEAFDCQEWAEGQGRHINSAFLIYNAVDDQEKLITFPRIQPISKDDFRRYQGAIARRRIRLGRKYVISHKKEVPLSAQWDISKKGSLSNTNVEALKNLASKSGWEITTTLEKIKIYTLEEQDAISVKVEKLVGSPAHIAYHLLSDLTKRPLWDPHYISCEVIDQVSEDDQIYYITCSVVNGDKPKDFVVLVSRRKPLKDNNTYTVALRSVVLPSVPSSPQYIRSEVICAGFLIQAVDSNSCTVTYLNQMSDSILPYFAGNIGGWSKSIEEAAASCIKFIENATPDGLKSVL	failed
MTERSDYSIRIMSRQEIGMAVDWAAEEGWNPGLHDADCFHAADPEGFLTGLLGNEPVATISVVRYGTAFGFLGFYIVRPKYRGMGFGLKIWNAGLEQLKGRTIGLDGVVAQQENYAKSGFILAYRNIRVKGSGGGKIPAHEGIKPLVELPFETLLTYDSLFFPEERRTFLECWINQRESSSLGIIENNRLSGYGVIRTCRSGSKIGPLFADRADLAEELFCALKASAPEGSPLFLDIPEVNPEAVKLAQRHNMTVVFETSRMYQGNIPELPLGNIYGVTTFELG	failed
MFMIKVITPETNHPKEGGILSALVSIYNCTIHIRKPRFTADQYKKYLHDHNQLLSHFVLHEHHSLAKEFPVMGVHLKELDRINPAQVHPDIKIISTSIHSIADAGNLSHPFEYIFYSPLFQSISKENYGTNNSLADLKKTVSELKEQTGIPIIGLGGIYEANIDLVKKSGFDGAALLGAVWVQSDPLAAFGRIASMILEHHHHHH	failed
MSTDRETVRSYDAVAAEYAAEAAVMPEWVATEIDVFVTELSGSGRVLEIGSGGGRDALELEKRGMSVRRTDISKGFVELLRESGFEADLLDPLTDDLADPQRPSMPYDGIWACACLIHVARGDFGTVLGRLAEATRSGGRLHVSVREGDGEDLSTHGSAAAPRRYVETYWREPALRSALTDAGWIVNDVRRYVGRPHDRWLSVRASRA	failed
MISVCIATYNGEKYLAEQLDSILLQVSEEDELIISDDGSTDHTLEILRTYAANYPQIQLLQGPGQGVIANFAFALTHTKGEVIFLADQDDVWLPNKVTTVTEYFETHPDIQVVISDLKIVDADLQVTNPSYFKFRKVKPGFWRNAIKSGYIGAGMAFRQEMKNVILPIPPEVPMHDMWIGLLAARKKQTGLIKEPLVLYRRHGANVSPIITKTSFQQKLNWRVNLLKALHQRLKEQRLEHHHHHH	not failed
RRGWVREVTAEVWTGPLAPVADLAGDTGVVLSREADETWLARYQRKGVSEVALRVLESGPSVWFATVPGAEGADGAGGGGGVAAIGRCVVDGRWASFAAVEVDPAQRRRGLATAVMAALARRALDEGASAAWLQVETDNAGARALYAGMGFAAHHSYHHYREPAAAGTDR	failed
MANLKVGDVLEDRYRIETPIARGGMSTVYRCLDLRLGRSMALKVMEEDFVDDPIFRQRFRREARSMAQLNHPNLVNVYDFSATDGLVYLVMELITGGTLRELLAERGPMPPHAAVGVMRGVLTGLAAAHRAGMVHRDIKPDNVLINSDHQVKLSDFGLVRAAHAGQSQDNQIVGTVAYLSPEQVEGGEIGPASDVYSAGIVLFELLTGTTPFSGEDDLDHAYARLTEVVPAPSSLIDGVPSLIDELVATATSINPEDRFDDSGEFLSALEDVATELSLPAFRVPVPVNSAANRANAQVPDAQPTDMFTTHIPKTPEPDHTAIIPVASANETSILPAQNMAQNMAQNPLQPPEPDFAPEPPPDTALNIQDQELARADEPEINTVSNRSKLKLTLWSIFVVAVIAAVAVGGWWFGSGRYGEIPQVLGMDEVQAVAVVEEAGFVAVAEPQYDNEVPTGSIIGTEPSFGERLPRGEDVSVLVSQGRPVVPDLSEDRSLSTVREELEQRTFVWVDGPGEYSDDVPEGQVVSFTPSSGTQLDVGETVQIHLSRGPAPVEIPDVSGMGVDQATRVLERAGLSVERTEEGFDAETPNGDVYGTSPKVSTEVKRGTSVVLQVSNAISVPDVVGMTKDEATAALAEEGLVVASTSIIPGEAASSADAVVTVEPESGSRVDPAHPQVSLGLAGEIQVPSVVGRKVSDARSILEEAGLTLTTDADDNDRIYSQTPRARSEVSVGGEVTVRAF	failed
MTNLISGSSYPTANLYFMQVWKIECWLRAHEFSVDETICQMVEIMTLKFEKYWEEYSDILAIAAVFDPRLKLKCLEYCFSTLDRLTSKSRLAHVRSKIYKLFKAYKKRPSSITSSSQVETLEEDIPAGYSGFYAFVSQKVGSSGKSELDIYLGEPTLDMAAFRHFNVLAYWKDNSCRFKELSSMACDVLSIPITTVASESSFSIGSGVLSKYRSSLLPENIQALICTRNWLRGFPKEGEEEEVEEEKEEEKEEEKEEA	failed
